Experimental data reported in publication PMC8069557.

Biological target: C-terminal extension of Bacillus cereus hemolysin II (HlyIICTD) (Bacillus cereus)
Assay: not stated; HlyIICTD in the presence of 4M urea

Which stoichiometry N does the source give for “C-terminal extension of Bacillus cereus hemolysin II (HlyIICTD) (domain or fragment)” here?
Its stoichiometry N is 3.
